The values below come from publication PMC11220838, “Factors affecting macromolecule orientations in thin films formed in cryo-EM” (Acta Crystallographica. Section D, Structural Biology, 2024).

The stoichiometry N is the number of molecules, sites or subunits per partner or assembly.

“And” between values parts separate entries of the source, which are not always exact repeats. Identical values can stand only once.

The target in series [1] is SARS-CoV-2 spike protein with C-terminal tag (SARS-CoV-2). In words: cryo-EM structure.
Series [2] deals with the molecule itself. In words: cryo-EM structure; single-particle cryo-EM, plunge-frozen Quantifoil 0.6/1 grids, 25 mM HEPES pH 7.4, 50 mM NaCl; no additive or CTAB; 4 or 20°C; D3 symmetry.
In series [3] the target is T1, Human C-reactive protein (human), P02741.
T1 chain: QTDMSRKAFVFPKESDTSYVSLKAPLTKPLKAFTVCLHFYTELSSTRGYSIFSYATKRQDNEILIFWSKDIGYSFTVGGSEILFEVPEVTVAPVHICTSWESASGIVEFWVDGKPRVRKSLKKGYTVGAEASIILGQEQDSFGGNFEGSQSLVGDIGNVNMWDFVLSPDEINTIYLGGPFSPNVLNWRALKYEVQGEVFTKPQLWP
In words: cryo-EM structure; single-particle cryo-EM, plunge-frozen Quantifoil 1.2/1.3 grids, 20 mM Tris pH 8, 280 mM NaCl, 5 mM CaCl2, 0.03% NaN3; no additive or CTAB, SLS, Tween 20, Tween 80, A8-35; 20°C. To be noted: remark: other sources report otherwise.

Molecule “SARS-CoV-2 spike protein with C-terminal tag (domain or fragment)” gave a stoichiometry N in series [1] of 3.

B1: E. coli PaaZ (enzyme)
chain: QQLASFLSGTWQSGRGRSRLIHHAISGEALWEVTSEGLDMAAARQFAIEKGAPALRAMTFIERAAMLKAVAKHLLSEKERFYALSAQTGATRADSWVDIEGGIGTLFTYASLGSRELPDDTLWPEDELIPLSKEGGFAARHLLTSKSGVAVHINAFNFPCWGMLEKLAPTWLGGMPAIIKPATATAQLTQAMVKSIVDSGLVPEGAISLICGSAGDLLDHLDSQDVVTFTGSAATGQMLRVQPNIVAKSIPFTMEADSLNCCVLGEDVTPDQPEFALFIREVVREMTTKAGQKCTAIRRIIVPQALVNAVSDALVARLQKVVVGDPAQEGVKMGALVNAEQRADVQEKVNILLAAGCEIRLGGQADLSAAGAFFPPTLLYCPQPDETPAVHATEAFGPVATLMPAQNQRHALQLACAGGGSLAGTLVTADPQIARQFIADAARTHGRIQILNEESAKESTGHGSPLPQLVHGGPGRAGGGEELGGLRAVKHYMQRTAVQGSPTMLAAISKQWVRGAKVEEDRIHPFRKYFEELQPGDSLLTPRRTMTEADIVNFACLSGDHFYAHMDKIAAAESIFGERVVHGYFVLSAAAGLFVDAGVGPVIANYGLESLRFIEPVKPGDTIQVRLTCKRKTLKKQRSAEEKPTGVVEWAVEVFNQHQTPVALYSILTLVARQHGDFVD
notes: source: recombinantly overexpressed, purified as described in Sathyanarayanan et al. (2019)
As for B1, the “stoichiometry N” value in series [2] was determined as 6.

B2: Human C-reactive protein, P02741 19-224 (natural protein)
chain: QTDMSRKAFVFPKESDTSYVSLKAPLTKPLKAFTVCLHFYTELSSTRGYSIFSYATKRQDNEILIFWSKDIGYSFTVGGSEILFEVPEVTVAPVHICTSWESASGIVEFWVDGKPRVRKSLKKGYTVGAEASIILGQEQDSFGGNFEGSQSLVGDIGNVNMWDFVLSPDEINTIYLGGPFSPNVLNWRALKYEVQGEVFTKPQLWP
Turning to B2, in series [3], the stoichiometry N is 5 and 10.
